According to patent US20020082409A1:
Ends that are not written are not given here.

Tests used:
Assay in all cases: cell-based or functional assay
[1] = biological target: recombinant CRH R2 beta expressed in 293T cells (UniProt Q13324)
[2] = biological target: recombinant CRH R2-alpha expressed in 293T cells (UniProt Q13324)
[3] = biological target: recombinant CRH R2 expressed in 293T cells (isoform not stated, Fig. 3f), Q13324
recombinant CRH R2 expressed in 293T cells (isoform not stated, Fig. 3f), Q13324, sequence (Q13324 20-411): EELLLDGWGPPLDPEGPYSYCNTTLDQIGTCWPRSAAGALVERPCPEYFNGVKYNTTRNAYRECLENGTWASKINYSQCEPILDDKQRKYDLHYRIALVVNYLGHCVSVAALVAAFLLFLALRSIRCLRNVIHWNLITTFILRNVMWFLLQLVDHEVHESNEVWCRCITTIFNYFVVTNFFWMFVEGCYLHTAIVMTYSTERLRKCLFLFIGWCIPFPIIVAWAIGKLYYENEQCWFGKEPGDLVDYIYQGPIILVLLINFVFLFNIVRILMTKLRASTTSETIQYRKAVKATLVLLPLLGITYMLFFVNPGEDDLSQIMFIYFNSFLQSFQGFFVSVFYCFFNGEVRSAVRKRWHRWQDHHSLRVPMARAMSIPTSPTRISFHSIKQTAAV

| potency in cAMP production, compared to stresscopin 2 and the pufferfish peptide [1] [fold] | potency in cAMP production, compared to stresscopin 2 and the pufferfish peptide [2] [fold] | reduction in ability to stimulate cAMP production, against amidated stresscopin 1 [3] [fold] | Molecule |
| --- | --- | --- | --- |
| > 10 | > 10 |  | stresscopin 1 (full-length 43-amino-acid mature peptide, synthetic, amidated) |
|  |  | > 50 | HPGSRIVLSLDVILGLLQILLEQARARAAREQATTNARILARV-OH [SCP1-NA, full-length stresscopin 1 devoid of amidation at the C-terminus] |
